US8013137B2, “Modified enteropeptidase protein” (National University Corporation Hokkaido University, priority 2006, dated 2011)
Substitutions are numbered along the chain they refer to. Names may count otherwise.

B1: EP-2: recombinant serine protease domain of Medaka enteropeptidase-2 (AB272105) (protein)
chain: MKRRLTNLEVLLTVTTSLFAVCCVCLIVVSCIGLKPEGAAEPVQLIGQMVITAGAAFSEELRNSSSHLFKSLAFDVQQLVSDAFGASELRLLYRSFRVLYFRPGSIAVTFDLEFNQQIDLNEVKQQLGEGLQQIEDGALVIDVDSIQITEKPSSTTPEPTSTTGHITTETMPITGHTTPAATPTAASCPPDHSLCWDRSTCVLTDVLCDGVSDCPDASDENSSRCATTCDGQFVLGGPNGTFRSSETETYRNNSNCRWIIRMDGGLSVQVNFHHFETEEYSDVLKLYEGVGPHKQLAAELSGPSPPGTVLLLNNQVTVEFTSDGVNDLSGFRASYVAVNTSSLSNQEKLSCSFDQGFCFWRQLQDSFDTWIRTNVPTFPPLTGPNFDHTFGNSSGFYIVTSLSPGQWLKSFVINSLPLAPSSHPTCLSFWYHMFGEDVYRLRVLLRPSQPELTEVVLFHKEGNFGDNWNYAQITLNLSTESTVVFEAQKEGGNQNDIALDDISLRSEGCGPAPPEPTNVPLPTTAAPIPPDCGGPFDLWEPNSTFTSPNYPQSYGDGAECLWTLHAEKGQNIQLHFLDFDVEATYDVVEVRDGAGLNSTLLAVLSGSDGPTRDLYSTDNQMTVWFYTDSGGFGRGFRANFTSGVNLGSQAPCTNGQFQCQTGDCIHGDRQCDGVADCPDGYDEADCVALQVNGSHRLHFLLLRSLLTVCADTWDSELSDFTCQYLGYRSGEESLQSVLPQDAAFAVVTVSSNGTLETQVRETCSSGEVISLNCSNQPCGQRQVYNHGDQSENSKENNGVPRVVGGVNAEKGAWPWMVSLHWRGRHGCGASLIGRDWLLTAAHCVYGKNTHLQYWSAVLGLHAQSSMNSQEVQIRQVDRIIINKNYNRRTKEADIAMMHLQQPVNFTEWVLPVCLASEGQHFPAGRRCFIAGWGRDAEGGSLPDILQEAEVPLVDQDECQRLLPEYTFTSSMLCAGYPEGGVDSCQGDSGGPLMCLEDARWTLIGVTSFGVGCGRPERPGAYARVSAFASWIAETRRSSFSDLD
modifications: Oryzias latipes
B2: K63R: Medaka EP-1 protease mutant, substitution K63R (protein)
chain: CGQRQVYNSKENNGVPRVVGGVNAEKGAWPWMVSLHWRGRHGCGASLIGRDWLLTAAHCVYGRNTHLQYWSAVLGLHAQSSMNSQEVQIRQVDRIIINKNYNRRTKEADIAMMHLQQPVNFTEWVLPVCLASEDQHFPAGRRCFIAGWGRDAEGGSLPDILQEAEVPLVDQDECQRLLPEYTFTSSMLCAGYPEGGVDSCQGDSGGPLMCLEDARWTLIGVTSFGVGCGRPERPGAYARVSAFTSWIAETRRSSFSDLD
B3: T105E: Medaka EP-1 protease mutant, substitution T105E (protein)
chain: B2 chain with R63K, T105E
B4: P193E: Medaka EP-1 protease mutant, substitution P193E (protein)
chain: B2 chain with R63K, P193E
B5: Bovine (Neb): bovine EP protease available from NEB (protein)
chain: IVGGSDSREGAWPWVVALYFDDQQVCGASLVSRDWLVSAAHCVYGRNMEPSKWKAVLGLHMASNLTSPQIETRLIDQIVINPHYNKRRKNNDIAMMHLEMKVNYTDYIQPICLPEENQVFPPGRICSIAGWGALIYQGSTADVLQEADVPLLSNEKCQQQMPEYNITENMVCAGYEAGGVDSCQGDSGGPLMCQENNRWLLAGVTSFGYQCALPNRPGVYARVPRFTEWIQSFLH
B6: Bovine (Nvg): bovine EP protease available from Novagen (protein)
chain: B5 chain
B7: F144S: Medaka EP-1 protease mutant, substitution F144S (protein)
chain: B2 chain with R63K, F144S
B8: E173K: Medaka EP-1 protease mutant, substitution E173K (protein)
chain: B2 chain with R63K, E173K
B9: F144A: Medaka EP-1 protease mutant, substitution F144A (protein)
chain: B2 chain with R63K, F144A

system: GD4K-βNA; assay: EP activity and kinetic study with specific substrate GD4K-βNA; type: biochemical; conditions: serine protease domain; FIG. 8B
Experimental: (A) Active recombinant EP proteases were assayed using a GD4K-βNA (SEQ ID NO: 6) substrate as a substrate. Bovine (Nvg), bovine EP protease available from Novagen; Bovine (Neb), bovine EP protease available from NEB. (B) Active recombinant EP proteases were assayed using various synthetic peptide substrates. (C) Active EP proteases were analyzed by gelatin zymography. (D) Fibronectin (4 μg) was incubated with active EPs (100 ng) at 37° C. for 12 h. (E) Laminin ((10 μg) was incubated with active recombinant EPs (100 ng) at 37° C. for 12 h. (F) Two μg of the control protein containing the D4K site (SEQ ID NO: 1) was incubated with active recombinant EPs (100 ng) at 37° C. for 1 h.
(A) The purity of purified recombinant Medaka EP-1 and EP-2 protease was assessed by SDS-PAGE. Lane 1, Medaka EP fusion protein; lane 2, Medaka EP protease treated with immobilized trypsin; lane 3, Medaka EP protease purified using a resource Q column. (B) The enzyme activities of EP proteases were determined at various pHs using GD4K-βNA (SEQ ID NO: 6) as a substrate. (C) Recombinant Medaka trypsinogen was incubated at 37° C. with EPs for 15, 30 and 45 min. After incubation, samples were analyzed by SDS-PAGE and visualized by CBB staining (upper panel). The relative amount of the active form of Medaka trypsin at each time point were calculated based on the results shown in the upper panel (lower panel). The results are presented as the means (±SD) of three separate experiments.
(§1) EP activity was routinely determined using the specific substrate Gly-Asp-Asp-Asp-Asp-Lys-β-naphthylamide (GD4K-βNA) (SEQ ID NO: 6) (Sigma) according to the method of Mikhailova and Rumsh (Mikhailova et al., FEBS Lett., 442:226-230 (1999)). Enzyme activity for various 4-methylcoumaryl-7-amide (MCA)-containing peptide substrates was determined by the method of Barrett (Barrett et al., J., Biochem. J., 187:909-912 (1980)). For kinetic studies, initial velocities, extrapolated from the plot of product versus time, were transformed into double-reciprocal plots (Lineweaver et al., J. Am. Chem. Soc., 56:658-663 (1934)). The maximum velocities (Vmax) and Km and kcat values were obtained from the intercepts of these plots. For all experiments, the results of at least three separate determinations are shown.

Molecule	pH of maximal activity for GD4K-βNA
B1	8

same assay, conditions: substrate GD4K-βna

Molecule	Km	kcat
B2	200 µM	3.5 s⁻¹
B3	400 µM	4.33 s⁻¹
B4	400 µM	4.83 s⁻¹
B5	500 µM	25 s⁻¹
B6	800 µM	12.8 s⁻¹

system: recombinant Medaka trypsinogen; assay: Activation of recombinant Medaka trypsinogen, SDS-PAGE; type: biochemical; conditions: 37° C., 15, 30 and 45 min

Molecule	conversion of recombinant Medaka trypsinogen to active trypsin
B2	converted to trypsin as fast as the wild type enzyme

system: GD4K-βNA and the three MCA-containing substrates; assay: Specific activities of wild-type and mutant EP protease using synthetic peptide substrates (FIG. 3A); type: biochemical; conditions: not given
Experimental: (A) The specific activities of wild-type (EP-1) and mutant EP protease were determined using synthetic peptide substrates. (B) High-molecular-weight (HMW) kininogen (5 μg) was incubated with active EP proteases (100 ng) at 37° C. for 2 h and analyzed by SDS-PAGE. (C) Fibrinogen (10 μg) was incubated with active EP proteases (100 ng) at 37° C. for 12 h and analyzed by SDS-PAGE.
as §1

Molecule	enzyme activity for synthetic peptide substrates compared with the wild-type enzyme
B2	reduced enzyme activity for synthetic peptide substrates
B3	reduced enzyme activity for synthetic peptide substrates
B7	reduced enzyme activity for synthetic peptide substrates
B8	reduced enzyme activity for synthetic peptide substrates
B4	reduced enzyme activity for synthetic peptide substrates
B9	at an elevated rate when compared with the wild-type enzyme

system: Pro-Phe-Arg-MCA; assay: Activity assay of EP proteases and EP-treated hK8 samples with Pro-Phe-Arg-MCA (FIG. 4B middle); type: biochemical; conditions: not given
Experimental: (A) A recombinant fusion protein of Medaka gelatinase A (5 μg) was separately incubated with active EP proteases (100 ng) at 37° C. for 1 h, and analyzed by SDS-PAGE. (B) A recombinant fusion protein of human kallikrein 8 (hK8) (5 μg) was incubated with active EP proteases (100 ng) at 37° C. for 2 h. After incubation, the samples were analyzed by SDS-PAGE (upper panel), or assayed for activity with Pro-Phe-Arg-MCA (middle panel), or Boc-Glu(OBzl)-Ala-Arg-MCA (lower panel). […] The samples were then analyzed by SDS-PAGE/Western blotting using anti-human tPA antibody (upper panel) or anti-His probe antibody (lower panel). The position of sctPA (58- and 61-kDa) detected with the antibodies is shown.
as §1
Next, a 35.5-kDa protein of human kallikrein 8 (hK8) in the same E. coli expression system was synthesized. Digestion with Medaka wild-type and mutant EP proteases generated 31.5-kDa active hK8 by cleaving the D4K sequence (SEQ ID NO: 1) (FIG. 4B, Top). […] The EP protease-treated samples were directly assayed for hK8 activity using Pro-Phe-Arg-MCA, a good synthetic peptide substrate of hK8 (Rajapakse et al., FEBS Lett., 579:6879-6884 (2005)). […] The substrate Boc-Glu(OBzl)-Ala-Arg-MCA, which is slightly cleaved by active hK8, was rapidly hydrolyzed with the samples treated with mammalian, but not Medaka, EP proteases (FIG. 4B, Bottom).

Molecule	enzyme activity of the EP protease itself with Pro-Phe-Arg-MCA	Pro-Phe-Arg-MCA-hydrolyzing activity of hK8 fusion protein samples treated with EP protease
B2	none of the Medaka EP proteases (wild-type EP-1, K63R, E173A, or E193A) showed any significant enzyme activity	–
B4	none of the Medaka EP proteases (wild-type EP-1, K63R, E173A, or E193A) showed any significant enzyme activity	–
B5	considerable enzyme activities were detected	–
B6	–	very low activity
